In the supplement of paper PMC9170038:

System: MS2 coat protein
Assay: apparent KD of MS2 coat protein; higher = weaker reporter binding
Conditions: Eterna round: R107
Outline: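 Designed RNA switches were transcribed on-chip from Illumina sequencing clusters. They were then titrated with SNAP-549-labelled MS2 coat protein (twofold steps, 0.7 or 1.5 nM to 3 µM; 0.8–1.5 h to 10–20 min per step) in 100 mM Tris-HCl pH 7.5, 80 mM KCl, 4 mM MgCl2, without or with constant ligand. Apparent KD is the per-design median of normalised cluster binding-curve fits.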

[1] = input ligand: theophylline 20 uM
[2] = input ligand: theophylline 2 mM
[3] = input ligand: tryptophan 2.4 mM

Row | Sequence | apparent KD of MS2 coat protein (input ligand: arginine 13.2 mM) [nM] | apparent KD of MS2 coat protein [1] [nM] | apparent KD of MS2 coat protein [2] [nM] | apparent KD of MS2 coat protein (input ligand: none) [nM] | apparent KD of MS2 coat protein [3] [nM]
1 | CUACAUUUGUAGAAACCGGUCAACAAUAAUCGAGGACCGGUACGGCCGCCACUCGUAUAAUUUAAUACAUGAGGAUCACCCAUGU [Tryptophan A 1] | 13.7 | 19.4 | 19.4 |  | 
2 | CUACAUUUGUAGAAACCGGUCAACAAUAAUCGAGGACCGGUACGGCCGCCACUCGUAUAAUUUAUUACAUGAGGAUCACCCAUGU [Tryptophan A 2] | 13.6 | 16.7 | 15.4 |  | 
3 | CUAUAAAUAUGAAGGAGCGUCGAAAAUGGGUAAACAUGAGGAUCACCCAUGUAAAGGGAACGACAGGUAGGUCGCAUAUUUAUAG [AstromonsSSArgB#11] | 139 | 188 | 257 | 180 | 219
4 | CUAUGCAGGUCGGCCGCCACUACACACAUGAGGAUCACCCAUGUAGUUACUGGGUGAAGUGGCAGUAGGACCGGGACCUGCAUAC [Brourdmod10] | 139 | 394 | 817 | 391 | 362
5 | CUAUUCUGUACGGCCGCCACUUCAACGUGUAAGCUGGUGGUCCACUACAUGAGGAUCACCCAUGUAAGGACCGGGUACGGCGCGG [theeternabot_exclusion_MS2_Trp_B_29] | 12 | 16.6 | 69.4 | 12.5 | 40
6 | CUCAUCCACGCGGCCGCCACUACUUGUAGGUGUGGGUGUGUUGUGUUACAUGAGGAUCACCCAUGUAGGACCGGGCGUGGAUGAG [Whale] | 53.9 | 85.6 | 83.8 | 62.7 | 213
7 | CUCCCUUCGGCGGCCGCCACUAACAGUUUAAUGGACUUUCGGGUCCACAUGAGGAUCACCCAUGUUAGGACCGGGCCCUUGCUCU [theeternabot_exclusion_MS2_Trp_B_39] | 8.8 | 17.5 | 10.6 | 9.2 | 10.9
8 | CUCUCAUGAACAUGAGGAUCACCCAUGUAACGAGGACCGGUACGGCCGCCACUCGGUCGUGGAAACUAAUCGAGUGAGGUGGGAG [Tryp A Ex t5c] | 26.8 | 85.7 | 75.3 | 44.4 | 254
9 | CUCUGAGUGAGGAAUCACUCAGAGGCGGAUACCAGCGAGGUCCAUCGCCCUUGGCAGCCGAACAUGAGGAUCACCCAUGUCGGUA [#1 Same State - Theophylline A Attempt #23 (HarryS)] | 9.44 | 12.1 | 13.5 | 9.45 | 9.3
10 | CUGUACAUCUCGGCCGCCACUGACAUGAGGAUCACCCAUGUAGUACCUGAGAUAGACAUAUCUUACAGGACCGGGAGGUGUGCAG [SSTryp B #31] | 12.2 | 13.5 | 9.35 | 10.2 | 10.6
11 | CUUCAGGGUGCGGCCGCCACUUAUUAGGUGCUUGCGACGCCAGCACAUGAGGAUCACCCAUGUUCAAGGACCGGGCACCACCUUU [theeternabot_sameState_MS2_Trp_B_21] | 8.14 | 20 | 15.1 |  | 
12 | GAACAUGAGGAUCACCCAUGUAAAACAGAUACCAGUGAUAUAAUACACCCUUGGCAGCUGUAGCUGAAUAAUAAUUCCCUCAAGC [#19 SameState-TheophyllineA] | 17 | 21.8 |  |  | 16.9
13 | GAAGAGAGGAUACCGUUUGUAUACAACGAUACCAGUGGUAUGUAUCACCCUUGGCAGCGUGAGACAUGAGGAUCACCCAUGUGGC [theeternabot_exclusion_MS2_Theo_A_46] | 14.3 | 26.1 |  |  | 18.4
14 | GAAGGAGAACUCAUGACUCCUUCCCUGGAAGGAGCGAGCGAAAGCUCAGGUAGGUCGCCAGAAACAUGAGGAUCACCCAUGUAAU [(A)''-(M)'-(A)'-(Arg1)-(Arg2)-(M1)-(M2)_Design4] | 28.5 | 48 | 43.3 | 37.4 | 40.1
15 | GACAAUAAUUCAACAAUCAAAAUAGUGGGACGAGGACCGGUACGGCCGCCACUCGCUGAAGCACAUGAGGAUCACCCAUGUCUAA [theeternabot_exclusion_MS2_Trp_A_47] | 14.8 | 19.8 | 18.7 |  | 
16 | GACAUGAGGAUCACCCAUGUACCGCGAGAAGGAGCGCGGAUAAACGCAGGUAGGUCGCUCGUGGGCUUACAUUCAAGUGUAAGCU [Usarat] | 49 | 143 | 118 | 106 | 31.3
17 | GAGCUGAUGUAGAAAUUUUAUUUCUGAGAUACCAGUACAGAAAUGUACCCUUGGCAGCUCAGUUUUACAUGAGGAUCACCCAUGU [Ex Theophylline A 15] | 14.8 | 15.6 |  |  | 13.1
18 | GAGCUGAUGUAGAGCCUUUAGUUCUGAGAUACCAGUACAGAAAUGUACCCUUGGCAGCUCAGCUUUACAUGAGGAUCACCCAUGU [Ex Theophylline A 17] | 20 | 27.7 |  |  | 23.5

Row | Sequence | apparent KD of MS2 coat protein (input ligand: arginine 13.2 mM) [nM] | apparent KD of MS2 coat protein [1] [nM] | apparent KD of MS2 coat protein [2] [nM] | apparent KD of MS2 coat protein (input ligand: none) [nM] | apparent KD of MS2 coat protein [3] [nM]
19 | GAGGAAACUCACAUGAGGAUCACCCAUGUACGAGGACCGGUACGGCCGCCACUCGAAACCAUGGGCGGUAGUACAUGGAAACAUG [Design 2 MOD] | 34 | 65.8 | 75.5 |  | 
20 | GAGGGUGAGCCUCUGGUCCGUUUGACGGAUACCAGCGAGAGGUCUCGCCCUUGGCAGCCGACGACAUGAGGAUCACCCAUGUUAA [#09 Exclusion-TheophyllineA] | 17.3 | 21.4 | 19.2 | 17.1 | 15.7
21 | GAUAUAUAGGCGGCCGCCACUGAUUUUCAUAUAUAUAUAACAUGAGGAUCACCCAUGUAGAUAUACAGGACCGGGCCUAUAUAUU [aaaB] | 15.5 | 16 | 16 |  | 
22 | GAUCGACAAAACGUCUAGGAAAACUAGACGCGAGGACCGGUACGGCCGCCACUCGUCCUCACAUGAGGAUCACCCAUGUACGAUC [#SwitchBubble 2 #CuTurnoff] | 30.3 | 43.2 | 46.3 |  | 
23 | GCACCAGGUACGGAUACCAGCUAUAGGUACAUGUCAGGACAUGAGGAUCACCCAUGUGGUAGCCCUUGGCAGCUGUACCUGGUGC [EThB NP+V+V2 #2] | 18.5 | 26.3 |  |  | 19.1
24 | GCAUCCUAGUCGGCCGCCACUGCAAUUGUAGUACUGCUACAUGAACAUGAGGAUCACCCAUGUAGCAGGACCGGGACUAGGAUGC [(Trp1)-(TM)''-(TM)'-(Ms2)-(Trp2)_Design10] | 44.4 | 78.5 | 68.5 |  | 
25 | GCAUCCUAGUCGGCCGCCACUGCAUCACCAGUGGCAGGUGAUCAACAUGAGGAUCACCCAUGUAGCAGGACCGGGACUAGGAUGC [(Trp1)-(TM)''-(TM)'-(Ms2)-(Trp2)_Design4] | 113 | 163 | 168 |  | 
26 | GCAUCCUAGUCGGCCGCCACUGCAUGUAGGCAGUGCUGCUACAAACAUGAGGAUCACCCAUGUAGCAGGACCGGGACUAGGAUGC [(Trp1)-(MT2)''-(T1)'-(MT2)'-(Ms2)-(Trp2)_Design2] | 13 | 18.5 | 15.6 |  | 
27 | GCCAGACAUGAGGAUCACCCAUGUAGCGAUACCAGCUCUGUUGUGAGCCCUUGGCAGCGCACUGGCAUCGUAGGUGAUCCAAUAA [(T)''-(Ms2)-(Theo)-(T)'-(M)'_Design1] | 50.4 | 114 |  |  | 45.9
28 | GCCGGGCCCGCGGCCGCCACUGAGAGAGUCGUGUGAACAUGAGGAUCACCCAUGUAAUAUAUAUACAGGACCGGGCGGGCCCGGC [4.X] | 13.8 | 20.1 | 15.7 | 10.4 | 13.9
29 | GCCUAGCAGCGAAGGAGCGACAUCGGCGCAUGCGAGGACAUGAGGAUCACCCAUGUACCAUGUCAGGUAGGUCGCGCUGCUAGGC [EAB NP+V+V2 #6] | 17.9 | 36.4 | 23.2 | 23.4 | 24.5
30 | GCGAUGGAGCGAAGGAGCGGCUAAAUGUAUCACAUGAGGAUCACCCAUGUUCCAGGAUGUGGCCAGGUAGGUCGCGCUCCAUCGC [SSAB NP+V+V2 #16] | 233 | 212 | 322 | 229 | 288
31 | GCGAUGGAGCGAAGGAGCGUGCUGGUACAUGAGGAUCACCCAUGUGAGUCGCAGCGCUAAGCACAGGUAGGUCGCGCUCCAUCGC [EAB NP+V+V2 #11] | 49.1 | 35.3 | 34.5 | 28 | 34.2
32 | GCGGUACGUACUGAUACCAGAGACAUGAGGAUCACCCAUGUCCCAUGGUCAUGCCUCAGACUCCCUUGGCAGCAGGAUAAGUGCG [Exclusion Theophylline B GF3] | 14.3 | 17.1 | 40.4 | 13.9 | 12.8
33 | GCGUACGAUCGGGAUACCAGACAUUGCCGUUAGGGUGAACUUGAGGAUCACCCAAGUUUUGUCCCUUGGCAGCCCGAUCGUACGC [ETB NP+V+V2 #9 Diff Apt, Same Structure] | 9.92 | 19.4 | 220 | 10 | 10.4
34 | GCGUUCUCUGCGGCCGCCACUCAAGGAGCUACAUAGCUCCUAGACAUGAGGAUCACCCAUGUCGCGAGGACCGGGUAGAUCCUUA [Same State Typptophan B GF8] | 116 | 288 | 360 | 159 | 120
35 | GCGUUCUCUGCGGCCGCCACUCAAGGAGCUACAUAGCUCCUAGACAUGAGGAUCACCCAUGUGGCGAGGACCGGGUAGAUCCUUA [Same State Typptophan B GF7] | 76.3 | 359 | 337 |  | 
